Assay results taken from patent US20060009380A1 (L OREAL, published 2006).

Target: T1, transglutaminase 3 (human, UniProt Q08188 2-693, limits assumed)
T1 sequence (looked up): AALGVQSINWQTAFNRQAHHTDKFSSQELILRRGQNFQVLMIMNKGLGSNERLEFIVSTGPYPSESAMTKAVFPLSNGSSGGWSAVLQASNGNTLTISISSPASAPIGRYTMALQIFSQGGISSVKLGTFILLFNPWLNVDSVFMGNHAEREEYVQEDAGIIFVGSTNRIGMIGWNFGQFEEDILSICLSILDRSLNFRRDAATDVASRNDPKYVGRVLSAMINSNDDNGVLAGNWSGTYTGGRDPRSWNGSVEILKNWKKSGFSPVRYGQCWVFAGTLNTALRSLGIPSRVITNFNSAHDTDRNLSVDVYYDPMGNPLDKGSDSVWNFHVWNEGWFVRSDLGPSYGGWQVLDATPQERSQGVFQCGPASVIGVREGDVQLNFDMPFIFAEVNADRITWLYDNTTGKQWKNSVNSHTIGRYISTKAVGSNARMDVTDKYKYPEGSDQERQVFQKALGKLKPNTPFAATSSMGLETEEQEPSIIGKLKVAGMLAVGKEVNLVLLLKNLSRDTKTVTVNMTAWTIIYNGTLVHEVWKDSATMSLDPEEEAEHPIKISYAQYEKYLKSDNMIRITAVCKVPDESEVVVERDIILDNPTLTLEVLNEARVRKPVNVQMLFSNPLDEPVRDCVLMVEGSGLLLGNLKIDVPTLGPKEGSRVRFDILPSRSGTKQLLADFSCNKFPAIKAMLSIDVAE
Test: affinity chromatography: CLSP on CNBr-sepharose, human epidermis extract loaded with calcium chloride, eluted with EDTA, held protein sequenced
Description: The coupling efficiency was 0.95 mg of polypeptide per milliliter of balls. Human epidermis (0.83 g of abdominal skin obtained from plastic surgery and 100 g of plantar stratum corneum) was homogenized with polytron in 10 ml and 120 ml respectively of 10 mmol of Hepes buffer, pH 7.4, containing 150 mmol of sodium chloride, 0.1% (weight/volume) of triton X100 and a mixture of protease inhibitors (Complete™ EDTA-free of Roche Molecular diluted with […] of depepstatin).
The suspension is then centrifuged at 10,000 g for 10 minutes at 4° C. The supernatant is filtered at 0.22 and adjusted with 2.5 mmol of calcium chloride before passing at ambient temperature through the affinity column. The columns are then washed with 10 volumes of 10 mmol Hepes buffer, pH 7.4, containing 150 mmol of sodium chloride, 0.1% (weight/volume) of triton X100 and a mixture of protease inhibitors. The elution is carried out by using the same buffer that contains 5 mmol of EDTA instead of 2 mmol of calcium chloride.
The eluted proteins are subjected to a denaturing gel electrophoresis (SDS-PAGE) and after migration, they are colored with silver with a silver coloration kit of the Amersham Pharmacia Biotech Company and according to the recommendations of the manufacturer.

B1: CLSP (calmodulin-like skin protein), the polypeptide of the invention (other)
chain: AGELTPEEEAQYKKAFSAVDTDGNGTINAQELGAALKATGKNLSEAQLRKLISEVDSDGDGEISFQEFLTAARKARAGLEDLQVAFRAFDQDGDGHITVDELRRAMAGLGQPLPQEELDAMIREADVDQDGRVNYEEFARMLAQE
notes: also called skin protein similar to calmodulin
binding result: binds
